This is an account of results in PMC6761512, “Trypanosoma cruzi Phosphomannomutase and Guanosine Diphosphate-Mannose Pyrophosphorylase Ligandability Assessment” (Antimicrobial Agents and Chemotherapy, 2019).

Substrate in data set [1]: O=P(O)(O)O[C@H]1O[C@H](CO)[C@@H](O)[C@H](O)[C@@H]1O
The data set is described as follows: Km determination with the GDP-MP assay. The following applies: other: GDP-MP substrates; mean of three independent replicates; pH 7.5. Type of data set: biochemical. The protocol:
(§1) All enzyme and substrate solution dilutions were prepared in assay buffer comprising 25 mM Tris-HCl (pH 7.5), 150 mM NaCl, 4 mM MgCl2, 0.01% (vol/vol) Tween 20, and 1 mM dithiothreitol in ultrapure water. Biochemical assays were performed in a 50-μl final assay volume using clear 384-well assay microplates (Greiner, catalog no. 781101) at room temperature. Unless stated otherwise, all reagent concentrations are written as final biochemical assay concentrations, and DMSO or compounds were added to assay plates using Echo acoustic dispensers (Labcyte). Reagent addition for high-throughput screening assays was performed using an Xrd-384 liquid dispenser (FluidX, UK) and a BioFill Solo/Xrd-384 16 channel resin nozzle (2.00 to 200 μl) tubing cartridge (FluidX, catalog no. 34-1005-S). Biochemical reactions were terminated by addition of 50 μl of BIOMOL Green (Enzo Life Sciences, catalog no. BML-AK111-1000) reagent, after which absorbance was measured following a 30-min incubation at room temperature. Absorbance measurements were performed at 650 nm using a PHERAStar microplate reader (BMG Labtech, Germany), and the data are represented as relative absorbance units (RAU). Linear and nonlinear regression was performed using the SigmaPlot 12.5 software, unless stated otherwise. […]

Substrate in data set [2]: Nc1nc2c(ncn2[C@@H]2O[C@H](COP(=O)(O)OP(=O)(O)OP(=O)(O)O)[C@@H](O)[C@H]2O)c(=O)[nH]1
The data set can be described thus: Km determination with the GDP-MP assay. Type of data set: biochemical. The following applies: other: GDP-MP substrates; mean of three independent replicates; pH 7.5. The protocol: as §1

Substrate in data set [3]: O=C[C@@H](O)[C@@H](O)[C@H](O)[C@H](O)COP(=O)(O)O
The data set is described as follows: Km determination with the PMM-GDP-MP assay. The data set is classed as biochemical, Trypanosoma cruzi. The conditions noted are these: other: PMM substrate and cofactor, mean of three independent replicates, pH 7.5. The protocol: (§2) All enzyme and substrate solution dilutions were prepared in assay buffer comprising 25 mM Tris-HCl (pH 7.5), 150 mM NaCl, 4 mM MgCl2, 0.01% (vol/vol) Tween 20, and 1 mM dithiothreitol in ultrapure water. Biochemical assays were performed in a 50-μl final assay volume using clear 384-well assay microplates (Greiner, catalog no. 781101) at room temperature. Unless stated otherwise, all reagent concentrations are written as final biochemical assay concentrations, and DMSO or compounds were added to assay plates using Echo acoustic dispensers (Labcyte). Reagent addition for high-throughput screening assays was performed using an Xrd-384 liquid dispenser (FluidX, UK) and a BioFill Solo/Xrd-384 16 channel resin nozzle (2.00 to 200 μl) tubing cartridge (FluidX, catalog no. 34-1005-S). Biochemical reactions were terminated by addition of 50 μl of BIOMOL Green (Enzo Life Sciences, catalog no. BML-AK111-1000) reagent, after which absorbance was measured following a 30-min incubation at room temperature. Absorbance measurements were performed at 650 nm using a PHERAStar microplate reader (BMG Labtech, Germany), and the data are represented as relative absorbance units (RAU). Linear and nonlinear regression was performed using the SigmaPlot 12.5 software, unless stated otherwise.
(§3) To measure the activity of the T. cruzi PMM enzyme, a PMM-GDP-MP biochemical assay system was used. […]

Substrate in data set [4]: O=P(O)(O)OC[C@H]1O[C@H](OP(=O)(O)O)[C@H](O)[C@@H](O)[C@@H]1O
The data set can be described thus: Km determination with the PMM-GDP-MP assay. The data set is classed as biochemical, Trypanosoma cruzi. The conditions noted are these: other: PMM substrate and cofactor, mean of three independent replicates, pH 7.5. The protocol:
as §2, §3

B1: T. cruzi GDP-MP enzyme (Trypanosoma cruzi strain CL Brener) (protein)
chain: MSEEKKSVANSKGMRAVILVGGYGTRLRPLTLTMPKPLVPFCNKPIIVHQVEALRDAGVTEVILAVAYRSDAMRKNMDYWSKELGVSFVFSLEEEPLGTAGPLALARDILLQDDQPFFVLNADITCRFPLRELLSFHQKSGKEGTIAVTKVTDWQKYGVVVFDEATGVIDQFVEKPKNFVGDRINAGIYVFNKSVLNRIKVEKTSIETQVFPQMASAKQLCAFILEGFWMDIGVPKDYIEGVGKYLRSLNGTPKESQEVYGFGQAHKTDDFTVIGSVIIDPSAKIGKGCVIGPFATIGPGCVIGPTSRIRNSAILDESTIGKGTLVDSSIIGWKSRVGSWCRVVNNTVLGEDVEVKDELFLNGIKVLPNKSILQSYHEPEVVM
As to B1, the Michaelis-Menten constant (Km) (commonly the substrate concentration at which the rate is half of its maximum) stood at 13.3 µM in data set [1] and 40.7 µM in data set [2].

B2: T. cruzi PMM enzyme (Trypanosoma cruzi strain CL Brener) (protein)
chain: MKKVLLLFDIDGTLTPPRLSQPDEVREVIRRAKSAGFTVGTVGGSDLAKQIEQLGEDVFQQFDYVFAENGLLAYKHGKEIHRQNLLKELGNERIVKFVRRALRLLSELDIPVQRGTFIEYRNGMINVCPIGRNCTQSERDEFEVYDKEHHVREKLIKELQNSFPDYGLKYSIGGQISFDVFPVGWDKSYCLRFVENDFDEIHFFGDKTHAGGNDYEIYTDKRIIGHAVKSYKDTVDEVNKLISSK
With B2, the Km was 48.2 µM in data set [3] and 7.8 µM in data set [4].
